Results on one substance are retold here after publication PMC5528828.

In the assay the target is MAK33 VL S20N (murine). Put plainly: negative-stain transmission electron microscopy; non-fibrillar oligomers; 50 uM monomer, 25 mM acetic acid, 25 mM phosphoric acid, 50 mM NaCl, pH 2, room temperature, quiescent; number of monomers estimated from the mean particle diameter.

On to MAK33 VL S20N (domain or fragment), for which the stoichiometry N (monomers per oligomer) was 30.
